Patent US20240082402A1 (ELPIS BIOPHARMACEUTICALS, published 2024)
Each block holds one binder with its values, some of them ahead of it.

Tests used:
[1] = target: T1, full-length human CD19 on transfected K562 cells (human, UniProt P15391 20-556); test: cell-based or functional assay
T1 sequence (looked up): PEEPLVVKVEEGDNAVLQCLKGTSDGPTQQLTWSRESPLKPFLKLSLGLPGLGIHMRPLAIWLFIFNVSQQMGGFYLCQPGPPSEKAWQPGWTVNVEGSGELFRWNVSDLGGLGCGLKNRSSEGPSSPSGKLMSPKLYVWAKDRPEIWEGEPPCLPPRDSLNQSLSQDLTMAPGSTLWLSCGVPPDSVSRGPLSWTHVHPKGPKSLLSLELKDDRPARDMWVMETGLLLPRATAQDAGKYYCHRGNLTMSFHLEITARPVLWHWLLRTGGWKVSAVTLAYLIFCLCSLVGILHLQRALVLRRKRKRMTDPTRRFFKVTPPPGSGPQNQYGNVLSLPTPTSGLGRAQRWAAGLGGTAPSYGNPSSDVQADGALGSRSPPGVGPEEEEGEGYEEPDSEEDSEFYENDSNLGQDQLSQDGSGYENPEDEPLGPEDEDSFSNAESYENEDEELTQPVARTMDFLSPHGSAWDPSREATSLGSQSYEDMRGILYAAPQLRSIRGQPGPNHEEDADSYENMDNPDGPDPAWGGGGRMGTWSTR

[2] = target: human CD19 and human CD22 co-expressed on transfected K562 cells (human, UniProt P15391 20-556; P20273 20-847); test: cell-based or functional assay
[3] = target: full-length human CD22 on transfected K562 cells (human, UniProt P20273 20-847); test: cell-based or functional assay
[4] = target: T1, full-length human CD19 on transfected …; test: FACS, bispecific scFv at 200 nM on CD19 K562 cells, Alexa Fluor 647 anti-His detection, % positive cells
Procedure: (§1) Cells were spun down at 1300 rpm for 5 minutes at 4° C. to remove unbound antibodies. Cells were then washed once with 200 iaL of PBS per well. […] Samples were then spun down at 1300 rpm for 5 minutes at 4° C. and washed twice with 200uL of 1×PBS per well. The resultant samples were reconstituted in 200 uL of 1×PBS and read on Attune™ NxT Flow Cytometer.

[5] = target: T1, full-length human CD19 on transfected …; test: FACS, scFv at 200 nM on CD19 K562 cells, Alexa Fluor 647 anti-His detection, % positive cells
Procedure: as §1

B1: EPC-001-19 (bispecific CAR; G4S linker; co-expressed with EGFR), on transduced human T cells (other)
chain: EVQLVQSGAEVKKPGASVKVSCKASGYTFTSYGISWVRQAPGQGLEWMGWISAYNGNTNYAQKLQGRVTMTTDTSTSTAYMELRSLRSDDTAVYYCARDYGDPSGDDYWGQGTLVTVSSGGGGSGGGGSGGGGSEIVLTQSPATLSVSPGEGVTLSCRASQSVSSNLAWYQQRPGQAPRLLIYGASIKATDVPDRFSGGGSGTDFTLSISNLQSEDFAVYYCQQYHTWPPVTFGGGTKVEIKGGGGSQVQLQQWGAGLLKPSETLSLTCAVYGGSFSGYYWTWIRQPPGKGLEWIGEINHGGSSNYNPSLKSRVTISVDTSKKQFSLNLNSVTAADTAVYYCARGLGYRSGWYEVENAFDIWGQGTMVTVSSGGGGSGGGGSGGGGSQPVLTQPPSVSVAPGQTARITCGGNKIESRSVHWYQQKPGQAPVLVVYDDGARPSGIPERLSGSNSGDTATLTISRVEPGDEADYYCQVWDGSSVIFGGGTKLTVLESKYGPPCPPCPMFWVLVVVGGVLACYSLLVTVAFIIFWVKRGRKKLLYIFKQPFMRPVQTTQEEDGCSCRFPEEEEGGCELRVKFSRSADAPAYQQGQNQLYNELNLGRREEYDVLDKRRGRDPEMGGKPRRKNPQEGLYNELQKDKMAEAYSEIGMKGERRRGKGHDGLYQGLSTATKDTYDALHMQALPPR
IFNγ/Granzyme B Double Positive Cell % (CD4+) [1]: 10.9%
IFNγ/Granzyme B Double Positive Cell % (CD8+) [1]: 82%
IFNγ/Granzyme B Double Positive Cell % (CD4+) [2]: 3.01%
IFNγ/Granzyme B Double Positive Cell % (CD8+) [2]: 74.9%
IFNγ/Granzyme B Double Positive Cell % (CD4+) [3]: 0.92%
IFNγ/Granzyme B Double Positive Cell % (CD8+) [3]: 68.5%

B2: EPC-001-7 (bispecific scFv) (bispecific antibody)
scFv: QVQLQQWGAGLLKPSETLSLTCAVYGGSFSGYYWTWIRQPPGKGLEWIGEINHGGSSNYNPSLKSRVTISVDTSKKQFSLNLNSVTAADTAVYYCARGLGYRSGWYEVENAFDIWGQGTMVTVSSGGGGSGGGGSGGGGSQPVLTQPPSVSVAPGQTARITCGGNKIESRSVHWYQQKPGQAPVLVVYDDGARPSGIPERLSGSNSGDTATLTISRVEPGDEADYYCQVWDGSSVIFGGGTKLTVLGGGGSGGGGSGGGGSGGGGSEVQLVQSGGGVVQPGKSLRLSCAASGFTFSSYGMHWVRQAPGKGLEWVAVIWYDGSNKYYADSVKGRFTISRDNSKNTLYLQMNSLRAEDTAVYYCARDGWTGFDYWGQGTTVTVSSGGGGSGGGGSGGGGSEIVLTQSPATLSVSPGEGVTLSCRASQSVSSNLAWYQQRPGQAPRLLIYGASIKATDVPDRFSGGGSGTDFTLSISNLQSEDFAVYYCQQYHTWPPVTFGGGTKVEIKDYKDDDDKGGHHHHHH
notes: Expressed in E. coli periplasm (pET22b, Rosetta II), Ni-purified; detected with an anti-His antibody
binding result [4]: binds

B3: EPC-001-8 (bispecific scFv) (bispecific antibody)
scFv: EVQLVQSGGGVVQPGKSLRLSCAASGFTFSSYGMHWVRQAPGKGLEWVAVIWYDGSNKYYADSVKGRFTISRDNSKNTLYLQMNSLRAEDTAVYYCARDGWTGFDYWGQGTTVTVSSGGGGSGGGGSGGGGSEIVLTQSPATLSVSPGEGVTLSCRASQSVSSNLAWYQQRPGQAPRLLIYGASIKATDVPDRFSGGGSGTDFTLSISNLQSEDFAVYYCQQYHTWPPVTFGGGTKVEIKGSTSGSGKPGSGEGSTKGQVQLQQWGAGLLKPSETLSLTCAVYGGSFSGYYWTWIRQPPGKGLEWIGEINHGGSSNYNPSLKSRVTISVDTSKKQFSLNLNSVTAADTAVYYCARGLGYRSGWYEVENAFDIWGQGTMVTVSSGGGGSGGGGSGGGGSQPVLTQPPSVSVAPGQTARITCGGNKIESRSVHWYQQKPGQAPVLVVYDDGARPSGIPERLSGSNSGDTATLTISRVEPGDEADYYCQVWDGSSVIFGGGTKLTVLDYKDDDDKGGHHHHHH
notes: Expressed in E. coli periplasm, Ni-purified
binding result [4]: binds

B5: EPC-001-6 (bispecific antibody)
tandem scFv, anti-CD22 scFv - linker - anti-CD19 scFv - Flag - His: QVQLVQSGAEVKRPGASVKVSCKASGYTFTSYGISWVRQAPGQGLEWMGWISAYNGNTNYAQKLQGRVTMTTDTSTSTAYMELRSLRSDDTAVYYCARDPGIAVAGTVDYWGQGTLVTVSSGGGGSGGGGSGGGGSEIVMTQSPATLSVSPGEGVTLSCRASQSVSSNLAWYQQRPGQAPRLLIYGASIKATDVPDRFSGGGSGTDFTLSISNVQSEDFAVYYCQQYHTWTPVTFGGGTKVEIKGSTSGSGKPGSGEGSTKGQVQLQQWGAGLLKPSETLSLTCAVYGGSFSGYYWTWIRQPPGKGLEWIGEINHGGSSNYNPSLKSRVTISVDTSKKQFSLNLNSVTAADTAVYYCARGLGYRSGWYEVENAFDIWGQGTMVTVSSGGGGSGGGGSGGGGSQPVLTQPPSVSVAPGQTARITCGGNKIESRSVHWYQQKPGQAPVLVVYDDGARPSGIPERLSGSNSGDTATLTISRVEPGDEADYYCQVWDGSSVIFGGGTKLTVLDYKDDDDKGGHHHHHH
notes: also called EPC-001-6 (bispecific scFv)
binding result [4]: binds

B6: EPC-001-9 (bispecific scFv) (bispecific antibody)
scFv: QVQLQQWGAGLLKPSETLSLTCAVYGGSFSGYYWTWIRQPPGKGLEWIGEINHGGSSNYNPSLKSRVTISVDTSKKQFSLNLNSVTAADTAVYYCARGLGYRSGWYEVENAFDIWGQGTMVTVSSGGGGSGGGGSGGGGSQPVLTQPPSVSVAPGQTARITCGGNKIESRSVHWYQQKPGQAPVLVVYDDGARPSGIPERLSGSNSGDTATLTISRVEPGDEADYYCQVWDGSSVIFGGGTKLTVLGGGGSGGGGSGGGGSGGGGSEVQLVQSGAEVKKPGASVKVSCKASGYTFTSYGISWVRQAPGQGLEWMGWISAYNGNTNYAQKLQGRVTMTTDTSTSTAYMELRSLRSDDTAVYYCARDYGDPSGDDYWGQGTLVTVSSGGGGSGGGGSGGGGSEIVLTQSPATLSVSPGEGVTLSCRASQSVSSNLAWYQQRPGQAPRLLIYGASIKATDVPDRFSGGGSGTDFTLSISNLQSEDFAVYYCQQYHTWPPVTFGGGTKVEIKDYKDDDDKGGHHHHHH
notes: as for B3
binding result [4]: binds

Second part, the binder after the results:

binding result [5]: no binding (tested: 200 nM)
B4: EPC-001-4 (scFv)
scFv (VH-linker-VL): EVQLVQSGAEVKKPGASVKVSCKASGYTFTSYGISWVRQAPGQGLEWMGWISAYNGNTNYAQKLQGRVTMTTDTSTSTAYMELRSLRSDDTAVYYCARDYGDPSGDDYWGQGTLVTVSSGGGGSGGGGSGGGGSEIVLTQSPATLSVSPGEGVTLSCRASQSVSSNLAWYQQRPGQAPRLLIYGASIKATDVPDRFSGGGSGTDFTLSISNLQSEDFAVYYCQQYHTWPPVTFGGGTKVEIK
notes: also called anti-CD22 monospecific scFv; parental anti-CD22 scFv

binding result [4]: binds
B7: EPC-001-5 (bispecific antibody)
tandem scFv, anti-CD19 scFv - linker - anti-CD22 scFv - Flag - His: QVQLQQWGAGLLKPSETLSLTCAVYGGSFSGYYWTWIRQPPGKGLEWIGEINHGGSSNYNPSLKSRVTISVDTSKKQFSLNLNSVTAADTAVYYCARGLGYRSGWYEVENAFDIWGQGTMVTVSSGGGGSGGGGSGGGGSQPVLTQPPSVSVAPGQTARITCGGNKIESRSVHWYQQKPGQAPVLVVYDDGARPSGIPERLSGSNSGDTATLTISRVEPGDEADYYCQVWDGSSVIFGGGTKLTVLGGGGSGGGGSGGGGSGGGGSQVQLVQSGAEVKRPGASVKVSCKASGYTFTSYGISWVRQAPGQGLEWMGWISAYNGNTNYAQKLQGRVTMTTDTSTSTAYMELRSLRSDDTAVYYCARDPGIAVAGTVDYWGQGTLVTVSSGGGGSGGGGSGGGGSEIVMTQSPATLSVSPGEGVTLSCRASQSVSSNLAWYQQRPGQAPRLLIYGASIKATDVPDRFSGGGSGTDFTLSISNVQSEDFAVYYCQQYHTWTPVTFGGGTKVEIKDYKDDDDKGGHHHHHH
notes: also called EPC-001-5 (bispecific scFv)

binding result [4]: binds
B8: EPC-001-10 (bispecific scFv) (bispecific antibody)
scFv: EVQLVQSGAEVKKPGASVKVSCKASGYTFTSYGISWVRQAPGQGLEWMGWISAYNGNTNYAQKLQGRVTMTTDTSTSTAYMELRSLRSDDTAVYYCARDYGDPSGDDYWGQGTLVTVSSGGGGSGGGGSGGGGSEIVLTQSPATLSVSPGEGVTLSCRASQSVSSNLAWYQQRPGQAPRLLIYGASIKATDVPDRFSGGGSGTDFTLSISNLQSEDFAVYYCQQYHTWPPVTFGGGTKVEIKGSTSGSGKPGSGEGSTKGQVQLQQWGAGLLKPSETLSLTCAVYGGSFSGYYWTWIRQPPGKGLEWIGEINHGGSSNYNPSLKSRVTISVDTSKKQFSLNLNSVTAADTAVYYCARGLGYRSGWYEVENAFDIWGQGTMVTVSSGGGGSGGGGSGGGGSQPVLTQPPSVSVAPGQTARITCGGNKIESRSVHWYQQKPGQAPVLVVYDDGARPSGIPERLSGSNSGDTATLTISRVEPGDEADYYCQVWDGSSVIFGGGTKLTVLDYKDDDDKGGHHHHHH
notes: as for B3
